The target of this test is IRE1, ER stress sensor RNase, endogenous in HCT116 cells (human (endogenous in HCT116)) (UniProt O75460). Description: co-IP; endogenous IRE1 immunoprecipitated from HCT116 WT lysate (anti-IRE1 clone B-12 cross-linked to protein G Dynabeads, 3 h at 4°C; 25 mM HEPES pH 7.3, 150 mM NaCl, 0.5% NP-40); cells treated with DMSO or TM 5 µg/mL 4 h; with or without RNase I and RNase T1 in the second wash; Western blot of IGF2BP3.

Experimental findings from paper PMC13431160 are described below.

UniProt O75460, sequence (O75460 19-977): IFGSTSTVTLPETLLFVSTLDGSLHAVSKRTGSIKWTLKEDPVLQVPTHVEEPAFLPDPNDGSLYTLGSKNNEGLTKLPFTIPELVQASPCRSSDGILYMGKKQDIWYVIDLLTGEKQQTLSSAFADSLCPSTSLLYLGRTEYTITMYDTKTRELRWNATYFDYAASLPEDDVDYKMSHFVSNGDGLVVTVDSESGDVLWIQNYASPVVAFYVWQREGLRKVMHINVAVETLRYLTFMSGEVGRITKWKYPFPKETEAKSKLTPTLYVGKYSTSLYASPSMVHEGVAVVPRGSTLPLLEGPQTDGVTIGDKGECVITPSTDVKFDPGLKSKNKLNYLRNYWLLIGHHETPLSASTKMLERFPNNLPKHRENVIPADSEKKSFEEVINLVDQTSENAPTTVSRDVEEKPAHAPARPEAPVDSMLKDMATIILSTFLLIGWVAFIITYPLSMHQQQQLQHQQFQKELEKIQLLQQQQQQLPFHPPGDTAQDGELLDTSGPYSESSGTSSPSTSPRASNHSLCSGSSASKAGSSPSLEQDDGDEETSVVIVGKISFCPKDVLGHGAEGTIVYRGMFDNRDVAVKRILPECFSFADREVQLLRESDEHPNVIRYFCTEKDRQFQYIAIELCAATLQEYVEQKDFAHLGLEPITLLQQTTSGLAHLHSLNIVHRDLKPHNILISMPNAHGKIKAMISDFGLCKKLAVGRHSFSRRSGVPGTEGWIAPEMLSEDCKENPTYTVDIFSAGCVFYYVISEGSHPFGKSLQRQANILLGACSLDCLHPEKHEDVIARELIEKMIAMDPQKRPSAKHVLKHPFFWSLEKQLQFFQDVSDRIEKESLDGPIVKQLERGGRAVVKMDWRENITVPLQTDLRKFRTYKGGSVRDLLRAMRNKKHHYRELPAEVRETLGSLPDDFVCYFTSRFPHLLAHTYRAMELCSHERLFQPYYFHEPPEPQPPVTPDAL

For “IGF2BP3 (insulin-like growth factor 2 mRNA-binding protein 3), endogenous in HCT116 cells (from UniProt O00425 1-579) (natural protein)”, the fold change of the interaction after 4 h of ER stress against unstressed controls was determined as 1.6 fold.
